In US20260193307A1 (ASKGENE PHARMA, published 2026):

B1: K1-69C7 scFv-Fc (JR8.153.1) (Fc fusion)
chain: DIQMTQSPSSLSASVGDRVTITCRASQDISNYLNWYQQKPGKAPKLLIYGASSLQSGVPSRFSGSGSGTDFTLTISSLQPEDFATYYCQQTYTIPLTFGQGTKVEIKAGGGGSGGGGSGGGGSQVQLVQSGAEVKKPGSSVKVSCKASGGTFTSYAINWVRQAPGQGLEWMGRIIPIIGRVDYAQKFQGRVTITADESTSTAYMELSSLRSEDTAVYYCARGFVGGFDVWGQGTLVTVSS
notes: Purified scFv-Fc homodimer; also called JR8.153.1 K1-69C7; not shown: Fc fragment (human Fc domain)
B2: K1-69H5 scFv-Fc (JR8.144.3) (Fc fusion)
chain: EIVLTQSPGTLSLSPGERATLSCRASQSVSSSYLAWYQQKPGQAPRLLIYGASSRATGIPDRFSGSGSGTDFTLTISRLEPEDFAVYYCQQYSRAPGTFGQGTKVEIKAGGGGSGGGGSGGGGSQVQLVQSGAEVKKPGSSVKVSCKASGGTFSSYGIHWVRQAPGQGLEWMGGIIPILGTANYAQKFQGRVTITADESTSTAYMELSSLRSEDTAVYYCAVPFFDVWGQGTLVTVSS
notes: Purified scFv-Fc homodimer; also called JR8.144.3 K1-69H5; not shown: Fc fragment (human Fc domain)
B3: K3-30B12 scFv-Fc (JR8.156.6) (Fc fusion)
chain: DIQMTQSPSSLSASVGDRVTITCRASQDISTYLNWYQQKPGKAPKLLIYDASSLQSGVPSRFSGSGSGTDFTLTISSLQPEDFATYYCQQSYSAPLTFGQGTKVEIKAGGGGSGGGGSGGGGSEVQLLESGGGLVQPGGSLRLSCAASGFTFSTYAMSWVRQAPGKGLEWVSTISGSGVRTYYADSVKGRFTISRDNSKNTLYLQMNSLRAEDTAVYYCARETYIYGPFDVWGQGTLVTVSS
notes: Purified scFv-Fc homodimer; also called JR8.156.6 K3-30B12; not shown: Fc fragment (human Fc domain)
B4: K3-15F7 scFv-Fc (JR8.144.4) (Fc fusion)
chain: DIQMTQSPSSLSASVGDRVTITCRASQDIRRYLNWYQQKPGKAPKLLIYAASSLQSGVPSRFSGSGSGTDFTLTISSLQPEDFATYYCQQAYSIPLTFGQGTKVEIKGGGGSGGGGSGGGGSEVQLVESGGGLVKPGGSLRLSCAASGFTFSNAWMSWVRQAPGKGLEWVGRIKSKTAGGTTDYAAPVKGRFTISRDDSKNTLYLQMNSLKTEDTAVYYCARDWWYLDFDYWGQGTLVTVSS
notes: Purified scFv-Fc homodimer; also called JR8.144.4 K3-15F7; not shown: Fc fragment (human Fc domain)

Target: T1, IL-2 (UniProt P60568 21-153)
Assay: cell-based or functional assay

T1 sequence (P60568 21-153 limits assumed): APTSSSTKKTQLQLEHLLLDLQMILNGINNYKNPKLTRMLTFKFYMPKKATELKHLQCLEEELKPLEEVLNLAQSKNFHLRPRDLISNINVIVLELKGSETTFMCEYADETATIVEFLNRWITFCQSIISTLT

IC50, CTLL2 cell-based IL-2 activity inhibition assay (50 nM IL-2)	Binder
7 nM	B1
11.3 nM	B2

Target: T1, IL-2
Assay: ForteBio (BLI), purified scFv-Fc to IL-2

Kd	Response	Binder
0.605 nM	3.1	B3
0.117 nM	3.5	B1
< 0.001 nM	3	B4
< 0.001 nM	3	B2
